Test results reported in US11332546B2, “Protease inhibitory antibodies and methods of use thereof” (The Regents of The University of California, priority 2019, dated 2022).
Values belong to the molecule of their own block, whether it stands above or below them.

Columns and labels:
[1] = molecular target: T1, cdMMP-12 mutant D4 (Homo sapiens, UniProt P39900, A167E/A173P/A252Q/H206S/I245T/K233R/M156E/N119Q/N126H/R135E/T215V/V161I/Y113D/Y132K); assay: Proteolytic stability of Fabs with cdMMP-12 D4; assay type: physicochemical; settings: 2 μM Fab, 2 μM cdMMP-12 D4, 4 h, 37° C.
T1 construct: hexahistidine (C); made in house; host or cells: E. coli BL21, pET32b (cytoplasmic, soluble fraction)
Method: (§1) Proteolytic stability tests 2 μM purified Fabs were incubated with 2 μM cdMMP-12 wt/D4 in 50 mM HEPES, 150 mM NaCl pH 7.5 at 37° C. for 4 h. Samples were analyzed by using 12% non-reducing SDS-PAGE and stained with Coomassie blue. Densitometric interpretation was conducted using a ChemiDoc imager (Bio-Rad).

[2] = molecular target: T2, MMP-7 (Homo sapiens, UniProt P09237); assay: FRET peptide inhibition assay, MMP-7; assay type: biochemical
T2 construct: purchased AnaSpec
T2 sequence (P09237 95-267): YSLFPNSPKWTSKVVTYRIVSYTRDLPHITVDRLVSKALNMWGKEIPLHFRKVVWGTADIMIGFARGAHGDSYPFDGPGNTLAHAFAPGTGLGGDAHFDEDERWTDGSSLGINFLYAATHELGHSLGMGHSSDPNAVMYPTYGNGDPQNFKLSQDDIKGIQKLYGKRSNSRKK
Method: (§2) FRET peptide inhibition assays In 96-well assay plates (Corning), 60/250/350/10/10/30 nM of (cd)MMP-1/-7/-9/-12 D4/-12 wt/-14 were preincubated with 1 nM-1 μM purified Fabs for 30 min at room temperature then 1 μM substrate M-2350 (Bachem) was added. Generated fluorescent signals (λEx=328 nm, λEm=393 nm) were monitored at 37° C. to measure the initial velocities. To calculate inhibition constants (KIs), data were fit with the equations for slow tight-binding inhibitors. The inhibition type of the Fabs was determined using the initial velocities of cdMMP-12 D4 as a function of substrate concentration (250-2000 nM) at various Fab concentrations (31-500 nM). The values of Vmax and Km were derived from linearization in accordance with the Lineweaver-Burk equation.

[3] = molecular target: T3, cdMMP-12 wt (Homo sapiens, UniProt P39900); assay: FRET peptide inhibition assay, cdMMP-12 wt; assay type: biochemical; settings: toward cdMMP-12 wild type
T3 construct: hexahistidine (C); made in house; host or cells: E. coli BL21 (pET32b, cytoplasmic)
Method: as §2

[4] = molecular target: cdMMP-9; assay: FRET peptide inhibition assay, cdMMP-9 (Example 2); assay type: biochemical; settings: FRET peptide; read-out: K1 toward cdMMP-9
Method: as §2

[5] = molecular target: cdMMP-14 (Homo sapiens, UniProt P50281); assay: Bio-layer interferometry on cdMMP-14; assay type: binding; design: human MMP-14 (residue 114-320); hexahistidine (C); made in house; host or cells: E. coli periplasm; settings: read-out: KD toward cdMMP-14
[6] = molecular target: T3, cdMMP-12 wt; assay: Proteolytic stability of Fabs with cdMMP-12 wt; assay type: physicochemical; settings: 2 μM Fab, 2 μM cdMMP-12 wt, 4 h, 37° C.
Method: as §1

[7] = molecular target: T3, cdMMP-12 wt; assay: Elastin-FITC hydrolysis inhibition, cdMMP-12 wt; assay type: biochemical; settings: 7 nM wt cdMMP-12, 37° C., 12 h
Method: Inhibition tests with macromolecular substrates 10 μg/mL FITC-conjugated elastin (AnaSpec) was incubated with 7 nM cdMMP-12 D4/wt and 2-2000 nM purified Fab in 50 mM Tris-HCl, 150 mM NaCl, 5 mM CaCl2), 100 μM ZnCl2 pH 7.5. Generated fluorescent signals were measured at 12 h with λEx of 490 nm and λEm of 520 nm. For inhibition assays on fibronectin, 200 nM fibronectin (Corning) was incubated with 200-350 nM cdMMP-12 wt and 2 μM GM6001 or 0.1-6 μM Fabs in 50 mM HEPES, 150 mM NaCl pH 7.5 at 37° C. for 2-4 h. The samples were separated on 5% non-reducing SDS-PAGE and analyzed by western blotting with anti-Fibronectin antibody (Abcam) and chemiluminescent substrate (Thermo Scientific). For inhibition assays on modified TEM-1 carrying cleavable sequence ([…] (SEQ ID NO:134)) and a N-terminal HA tag, 250 nM modified TEM-1 was incubated with 700 nM cdMMP-12 wt and 10 μM Fabs in 50 mM HEPES, 150 mM NaCl pH 7.5 at 37° C. for 4 h. The samples were separated on 12% non-reducing SDS-PAGE, and the modified TEM-1 was visualized by western blotting using anti-HA antibody (Invitrogen) and chemiluminescent substrate. Assays without cdMMP-12s or Fabs were performed as controls.

[8] = molecular target: cdMMP-9; assay: Bio-layer interferometry on cdMMP-9; assay type: binding; settings: read-out: KD toward cdMMP-9
[9] = molecular target: T1, cdMMP-12 mutant D4; assay: FRET peptide inhibition assay, cdMMP-12 D4; assay type: biochemical; settings: cdMMP-12 D4, FRET peptide, 31-500 nM Fab
Method: as §2

[10] = molecular target: T3, cdMMP-12 wt; assay: Fibronectin proteolysis inhibition, cdMMP-12 wt (western blot); assay type: biochemical; settings: 6 μM Fab; 350 nM wt cdMMP-12, 200 nM fibronectin, 37° C.
Method: Inhibition tests with macromolecular substrates 10 μg/mL FITC-conjugated elastin (AnaSpec) was incubated with 7 nM cdMMP-12 D4/wt and 2-2000 nM purified Fab in 50 mM Tris-HCl, 150 mM NaCl, 5 mM CaCl2), 100 μM ZnCl2 pH 7.5. Generated fluorescent signals were measured at 12 h with λEx of 490 nm and λEm of 520 nm. […] The samples were separated on 5% non-reducing SDS-PAGE and analyzed by western blotting with anti-Fibronectin antibody (Abcam) and chemiluminescent substrate (Thermo Scientific). […] Assays without cdMMP-12s or Fabs were performed as controls.

[11] = molecular target: T4, MMP-1 (Homo sapiens, UniProt P03956); assay: FRET peptide inhibition assay, MMP-1; assay type: biochemical
T4 construct: purchased AnaSpec
T4 sequence (P03956 100-469): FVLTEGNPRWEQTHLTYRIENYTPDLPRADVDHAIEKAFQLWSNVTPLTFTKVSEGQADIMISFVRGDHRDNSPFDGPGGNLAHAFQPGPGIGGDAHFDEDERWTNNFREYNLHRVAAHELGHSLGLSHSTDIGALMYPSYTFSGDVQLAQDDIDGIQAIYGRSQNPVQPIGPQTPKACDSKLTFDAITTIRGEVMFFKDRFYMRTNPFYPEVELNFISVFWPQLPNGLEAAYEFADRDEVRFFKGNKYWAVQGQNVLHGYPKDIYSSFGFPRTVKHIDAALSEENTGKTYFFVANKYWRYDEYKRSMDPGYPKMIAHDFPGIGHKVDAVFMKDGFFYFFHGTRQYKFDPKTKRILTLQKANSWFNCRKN
Method: as §2

[12] = molecular target: T5, cathepsin B (Homo sapiens, UniProt P07858); assay: FRET peptide inhibition assay, cathepsin B (M-2595); assay type: biochemical; settings: Fab; for Ki: cathepsin B, FRET peptide, read-out: Inhibition Potency KI
T5 construct: human cathepsin B (residue 66-339); hexahistidine (C); made in house; host or cells: E. coli (periplasm)
Method: (§3) For inhibition tests, 1 μM Fabs were 2-fold serially diluted into protease specific assay buffer and incubated with 1-10 nM proteases for 30 min at room temperature. […] Inhibition percentages at given concentrations were calculated by comparing the initial reaction rates in the presence or absence of inhibitor. IC50 was determined as the concentration that achieved 50% inhibition, and KI values were calculated using KI=IC50/(S/Km+1). Vmax and Km at various Fab concentrations were measured to determine the inhibition type. FRET inhibition assays were also used for selectivity tests of isolated Fabs with the relevant proteases.

[13] = molecular target: T6, cathepsin K (Homo sapiens, UniProt P43235); assay: FRET inhibition selectivity test, cathepsin K; assay type: biochemical; settings: same Fab concentrations as for cathepsin B
T6 construct: hexahistidine (C); made in house; host or cells: E. coli (periplasm)
T6 sequence (P43235 115-329): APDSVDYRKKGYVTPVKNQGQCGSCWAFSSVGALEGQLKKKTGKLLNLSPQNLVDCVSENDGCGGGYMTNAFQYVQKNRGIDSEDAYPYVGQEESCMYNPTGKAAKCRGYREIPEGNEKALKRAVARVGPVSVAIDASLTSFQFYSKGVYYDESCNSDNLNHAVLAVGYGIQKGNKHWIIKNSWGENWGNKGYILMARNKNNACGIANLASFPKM
Method: as §3

[14] = molecular target: T5, cathepsin B; assay: Binding kinetics by biolayer interferometry, Fabs on cathepsin B; settings: Fab, read-out: Binding Affinity KD
Method: Binding kinetics of produced antibodies towards associated protease targets were analyzed by using biolayer interferometry (ForteBio). For Fabs, biotinylated proteases were immobilized on streptavidin biosensors, and Fab binding to the sensors in absence of protease was monitored as backgrounds. For IgGs, protein A sensors were used and protease bindings without IgG were checked as backgrounds. kon and koff were determined for KD calculations. […] Fab in vitro stability was tested by incubating 1 μM Fab with 1 μM of the respective protease in the assay buffer for 12 hours and the samples were analyzed by SDS-PAGE.

[15] = tested on: HEK293F cells expressing APP571-696; assay: Aβ40 formation in HEK293F cells expressing APP571-696 (ELISA); assay type: cell-based; settings: HEK293 cells expressing APP, IgG 72 h, dose-dependent
Method: For amyloid precursor protein (APP) degradation studies, APP571-696 was cloned to the C-terminal of maltose binding protein (MBP) for E. coli expression and purified using amylose resin (NEB). 5 μM purified MBP-APP was incubated with 1 μM BACE1-Fc in the absence or presence of 1 μM IgG in BACE1 assay buffer at 37° C. for 24 h. In addition, APP571-696 was cloned to a pcDNA plasmid carrying a SPE leader for secretion expression. Transfected HEK293F cells were cultured in Expi293 media for 72 hrs with the presence of 14-800 nM purified IgG. The supernatants were clarified by centrifugation and 0.45 μm filtration, and produced Aβ1-40 was quantified by ELISA (Abcam).

T3 sequence (P39900 106-263): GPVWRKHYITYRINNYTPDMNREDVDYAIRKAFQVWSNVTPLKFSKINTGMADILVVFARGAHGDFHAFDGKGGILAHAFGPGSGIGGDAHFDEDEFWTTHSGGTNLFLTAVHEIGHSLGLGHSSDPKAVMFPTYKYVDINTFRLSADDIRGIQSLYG
cdMMP-9, sequence (P14780 with tags, fused parts or gaps DEL216-390 limits assumed): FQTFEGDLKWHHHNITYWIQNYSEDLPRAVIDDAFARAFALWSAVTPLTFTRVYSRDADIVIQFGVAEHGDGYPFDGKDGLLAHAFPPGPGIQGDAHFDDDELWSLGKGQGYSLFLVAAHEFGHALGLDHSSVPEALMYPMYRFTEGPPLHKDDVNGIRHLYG
T1 sequence (P39900 106-263 Y113D/N119Q/N126H/Y132K/R135E/M156E/V161I/A167E/A173P/H206S/T215V/K233R/I245T/A252Q): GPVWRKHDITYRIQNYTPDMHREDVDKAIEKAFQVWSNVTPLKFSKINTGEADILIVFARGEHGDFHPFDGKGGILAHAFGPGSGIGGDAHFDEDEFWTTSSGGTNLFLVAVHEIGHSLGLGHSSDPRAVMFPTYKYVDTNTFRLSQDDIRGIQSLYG

B1: Fab LH11: anti-MMP-12 antibody clone; VL SEQ ID NO:124, VH SEQ ID NO:126, CDR-H3 SEQ ID NO:129 (antibody, V domains shown)
VH: EVQLVESGGGLVQPGGSLRLSCAASGFNLSYYSMHWVRQAPGKGLEWVAYIYPYYGSTYYADSVKGRFTISADTSKNTAYLQMNSLRAEDTAVYYCARFLLSIGKLFVGDGSILHVWLYGMDYWGQGTLVTVSSAS
VL: DIQMTQSPSSLSASVGDRVTITCRASQSVSSAVAWYQQKPGKAPKLLIYSASSLYSGVPSRFSGSRSGTDFTLTISSLQPEDFATYYCQQAYYGYLFTFGQGTKVEIKR
Degradation of Fab by cdMMP-12 D4 [1]: no significant degradation
Inhibition of MMP-7 (selectivity) [2]: did not inhibit and non-
Inhibition FRET peptide [3]: non-
Ki [4]: 6200 nM
Kd [5]: ~700 nM
Fab remained intact after exposure to cdMMP-12 wt [6]: 67%
Inhibition of elastin-FITC hydrolysis ([7]; 2 nM Fab): 0%
Inhibition of elastin-FITC hydrolysis ([7]; 16 nM Fab): 49%
Inhibition of elastin-FITC hydrolysis ([7]; 63 nM Fab): 62%
Inhibition of elastin-FITC hydrolysis ([7]; 500 nM Fab): 86%
Kd [8]: 740 nM
Type of inhibition (Lineweaver-Burk) [9]: substrate competitive manner
Fibronectin remaining after cdMMP-12 wt hydrolysis [10]: significant amounts of fibronectin remained
Inhibition of MMP-1 (selectivity) [11]: did not inhibit and non-

Inhibition of cathepsin B (in words) [12]: inhibited cathepsin B completely
Ki [12]: 130 nM
Inhibition of cathepsin K (selectivity) [13]: but not cathepsin K
Kd [14]: 190 nM
B2: Fab CBA2: anti-cathepsin B antibody clone; VL SEQ ID NO:108, VH SEQ ID NO:81, CDR-H3 SEQ ID NO:84 (antibody, V domains shown)
VH: EVQLVESGGGLVQPGGSLRLSCAASGFNIYYYSIHWVRQAPGKGLEWVAYIYSYYGSTYYADSVKGRFTISADTSKNTAYLQMNSLRAEDTAVYYCARYGYPGGYHFWGWWSSPYAFDYWGQGTLVTVSSAS
VL: DIQMTQSPSSLSASVGDRVTITCRASQSVSSAVAWYQQKPGKAPKLLIYSASSLYSGVPSRFSGSRSGTDFTLTISSLQPEDFATYYCQQWSSSWGYLITFGQGTKVEIKR

Inhibition of cathepsin B (in words) [12]: inhibited cathepsin B completely
Ki [12]: 200 nM
Inhibition of cathepsin K (selectivity) [13]: but not cathepsin K
Kd [14]: 290 nM
B3: Fab CBA1: anti-cathepsin B antibody clone; VL SEQ ID NO:110, VH SEQ ID NO:85, CDR-H3 SEQ ID NO:87 (antibody, V domains shown)
VH: EVQLVESGGGLVQPGGSLRLSCAASGFNLYSSYIHWVRQAPGKGLEWVASIYPYSSSTSYADSVKGRFTISADTSKNTAYLQMNSLRAEDTAVYYCARGGGSWSAMDYWGQGTLVTVSSAS
VL: DIQMTQSPSSLSASVGDRVTITCRASQSVSSAVAWYQQKPGKAPKLLIYSASSLYSGVPSRFSGSRSGTDFTLTISSLQPEDFATYYCQQHYSLITFGQGTKVEIKR

B4: IgG B2B2: anti-BACE1 IgG of clone B2B2 (antibody, V domains shown)
VH: EVQLVESGGGLVQPGGSLRLSCAASGFNISSYYMHWVRQAPGKGLEWVASIYSSYGYTYYADSVKGRFTISADTSKNTAYLQMNSLRAEDTAVYYCARYWGYYAWFGSHPWAYGAFDYWGQGTLVTVSSAS
VL: DIQMTQSPSSLSASVGDRVTITCRASQSVSSAVAWYQQKPGKAPKLLIYSASSLYSGVPSRFSGSRSGTDFTLTISSLQPEDFATYYCQQYGYYLITFGQGTKVEIKR
Reduction of amyloid beta (Aβ40) production [15]: 80%
